In the Human Domainome abundance scans (Beltran et al. 2025):
± gives the uncertainty stated by the source.

B1: Zinc finger MYM-type protein 3, residues 405 to 444; numbered along this chain, Q14202 (parent)
chain: DATRCSICQKTGEVLHEVSNGSVVHRLCSDSCFSKFRANK

Variants of: B1
Assay: abundance fitness (aPCA) (normalised: wild type 0, dead -1); higher = more abundant; growth selection in yeast, the domain comes from the species named
Conditions: Homo sapiens

Row | Variant | abundance fitness
1 | DATRCSICQKTGEVLHDVSNGSVVHRLCSDSCFSKFRANK [E17D] | -0.251 ± 0.11
2 | DATRCSICQKTGEVLHPVSNGSVVHRLCSDSCFSKFRANK [E17P] | -0.697 ± 0.086
3 | DATRCSICQKTGEVLHVVSNGSVVHRLCSDSCFSKFRANK [E17V] | -0.487 ± 0.058
4 | DATRCSICQKTGEVLHMVSNGSVVHRLCSDSCFSKFRANK [E17M] | -0.395 ± 0.088
5 | DATRCSICQKTGEVLHFVSNGSVVHRLCSDSCFSKFRANK [E17F] | -0.606 ± 0.091
6 | DATRCSICQKTGEVLHAVSNGSVVHRLCSDSCFSKFRANK [E17A] | -0.759 ± 0.068
7 | DATRCSICQKTGEVLHRVSNGSVVHRLCSDSCFSKFRANK [E17R] | -0.44 ± 0.053
8 | DATRCSICQKTGEVLHEVSGGSVVHRLCSDSCFSKFRANK [N20G] | -0.21 ± 0.052
9 | DATRCSICQKTGEVLHEVSPGSVVHRLCSDSCFSKFRANK [N20P] | -0.559 ± 0.067
10 | DATRCSICQKTGEVLHEVSCGSVVHRLCSDSCFSKFRANK [N20C] | -0.517 ± 0.11
11 | DATRCSYCQKTGEVLHEVSNGSVVHRLCSDSCFSKFRANK [I7Y] | 0.079 ± 0.089
12 | DNTRCSICQKTGEVLHEVSNGSVVHRLCSDSCFSKFRANK [A2N] | 0.461 ± 0.072
13 | DRTRCSICQKTGEVLHEVSNGSVVHRLCSDSCFSKFRANK [A2R] | -0.089 ± 0.053
14 | DHTRCSICQKTGEVLHEVSNGSVVHRLCSDSCFSKFRANK [A2H] | 0.041 ± 0.11
15 | DETRCSICQKTGEVLHEVSNGSVVHRLCSDSCFSKFRANK [A2E] | -0.013 ± 0.063
16 | DATRCSICQKTGEVLHEVSNGSVVHRLCRDSCFSKFRANK [S29R] | -0.684 ± 0.062
17 | DATRCSICQKTGEVLHEVSNGSVVHRLCEDSCFSKFRANK [S29E] | -0.325 ± 0.063
18 | DATRCSICQKTGEVLHEVSNGSVVHRLCCDSCFSKFRANK [S29C] | -0.591 ± 0.077
19 | DATRCSICQKTGEVLHEVSNGSVVHRLCIDSCFSKFRANK [S29I] | -0.857 ± 0.13
20 | DATRCSICQKTGEVLHEVSNGSVVHRLCDDSCFSKFRANK [S29D] | -0.404 ± 0.076
21 | DATRCSICQKTGEVLCEVSNGSVVHRLCSDSCFSKFRANK [H16C] | -1.09 ± 0.17

Row | Variant | abundance fitness
22 | DATRCSICQKTGEVLEEVSNGSVVHRLCSDSCFSKFRANK [H16E] | -0.033 ± 0.061
23 | DATRCSICQKTGEVLNEVSNGSVVHRLCSDSCFSKFRANK [H16N] | -0.252 ± 0.27
24 | DATWCSICQKTGEVLHEVSNGSVVHRLCSDSCFSKFRANK [R4W] | -0.563 ± 0.066
25 | DATCCSICQKTGEVLHEVSNGSVVHRLCSDSCFSKFRANK [R4C] | -0.012 ± 0.073
26 | DATVCSICQKTGEVLHEVSNGSVVHRLCSDSCFSKFRANK [R4V] | -0.193 ± 0.057
27 | DATRCSIGQKTGEVLHEVSNGSVVHRLCSDSCFSKFRANK [C8G] | -0.86 ± 0.057
28 | DATRCSISQKTGEVLHEVSNGSVVHRLCSDSCFSKFRANK [C8S] | -0.927 ± 0.081
29 | DATRCSICQKTGEVLHEVSNGSVVHRLCSDSCFSKFRANG [K40G] | 0.211 ± 0.064
30 | DATRCSICQKTGEVLHEVSNGSVVHRLCSDSCFSKFRANI [K40I] | 0.012 ± 0.072
31 | DATRCSICQKTGEVLHEVSNGSVVHRLCSDSCFSKFRANL [K40L] | -0.095 ± 0.11
32 | DATRCSICQKHGEVLHEVSNGSVVHRLCSDSCFSKFRANK [T11H] | 0.088 ± 0.12
33 | DATRCSICQKQGEVLHEVSNGSVVHRLCSDSCFSKFRANK [T11Q] | -0.157 ± 0.077
34 | DATRCSICQKTGEVLHEVSNGSVVHRLCSDSNFSKFRANK [C32N] | -0.808 ± 0.1
35 | DATRCSICQKTGEVLHEVSNGSVVMRLCSDSCFSKFRANK [H25M] | -0.129 ± 0.066
36 | DATRCSICQKTGEVLHEVSNGSVVIRLCSDSCFSKFRANK [H25I] | -0.216 ± 0.076
37 | DATRCSICQKTGEVLHEVSNGSVVTRLCSDSCFSKFRANK [H25T] | -0.046 ± 0.056
38 | DATRCSICQKTGEVLHEVSNGSVVKRLCSDSCFSKFRANK [H25K] | -0.006 ± 0.061
39 | DATRCSICQKTGEVLHEVENGSVVHRLCSDSCFSKFRANK [S19E] | 0.066 ± 0.058
40 | DATRCSICQKTGEVLHEVLNGSVVHRLCSDSCFSKFRANK [S19L] | -0.233 ± 0.059
41 | DATRCSICQKTGEVLHEVGNGSVVHRLCSDSCFSKFRANK [S19G] | -0.1 ± 0.05
42 | DATRCSICQKTGEVLHEVNNGSVVHRLCSDSCFSKFRANK [S19N] | 0.052 ± 0.091

Row | Variant | abundance fitness
43 | DATRCSICQKTGEVLHEVSNGSRVHRLCSDSCFSKFRANK [V23R] | -0.013 ± 0.052
44 | DATRCSICQKTGEVLHEVSNGSLVHRLCSDSCFSKFRANK [V23L] | -0.317 ± 0.059
45 | DATRCSICQKTGEVLHEVSNGSTVHRLCSDSCFSKFRANK [V23T] | 0.126 ± 0.061
46 | DAFRCSICQKTGEVLHEVSNGSVVHRLCSDSCFSKFRANK [T3F] | -0.181 ± 0.078
47 | DAPRCSICQKTGEVLHEVSNGSVVHRLCSDSCFSKFRANK [T3P] | -0.561 ± 0.067
48 | DANRCSICQKTGEVLHEVSNGSVVHRLCSDSCFSKFRANK [T3N] | 0.025 ± 0.091
49 | DAGRCSICQKTGEVLHEVSNGSVVHRLCSDSCFSKFRANK [T3G] | 0.091 ± 0.054
50 | DADRCSICQKTGEVLHEVSNGSVVHRLCSDSCFSKFRANK [T3D] | -0.088 ± 0.067
51 | DALRCSICQKTGEVLHEVSNGSVVHRLCSDSCFSKFRANK [T3L] | -0.061 ± 0.056
52 | DAQRCSICQKTGEVLHEVSNGSVVHRLCSDSCFSKFRANK [T3Q] | 0.205 ± 0.061
53 | DACRCSICQKTGEVLHEVSNGSVVHRLCSDSCFSKFRANK [T3C] | -0.726 ± 0.1
54 | DATRCSICQKTGEVLHEVSNGSVVHRLCSDSCFSKKRANK [F36K] | -0.426 ± 0.1
55 | DATRCSICQKTGEVLHEVSNGSVVHRLCSDSCFSKIRANK [F36I] | -0.061 ± 0.072
56 | DATRCSICQKTGEVLHEVSNGSVVHRLCSDSCFSKFRATK [N39T] | 0.112 ± 0.065
57 | DATRCSICQKTGEVLHEVSNGSVVHRLCSDSCFSKFRAEK [N39E] | 0.128 ± 0.076
58 | DATRCSICQKTGEVLHEVSNGSVVHRLCSDSCFSKFRAGK [N39G] | 0.017 ± 0.058
59 | DATRCSICQKTGEVLHEVSNGSVVHRLCSDDCFSKFRANK [S31D] | 0.094 ± 0.09
60 | DATRCSICQKTGEVLHEVSNGSVVHRLCSDNCFSKFRANK [S31N] | -0.089 ± 0.095
61 | DATRCSICQKTGEVLHEVSNGSVVHRLCSDSCFPKFRANK [S34P] | -0.114 ± 0.064
62 | DATRCSICQKTGEVLHEVSNGSVVHRLCSDSCFDKFRANK [S34D] | 0.203 ± 0.1
